In article PMC7784741:

Legend:
[1] = target: YAP-binding domain of TEAD from Anabas testudineus (residues 211-428) (Anabas testudineus); experiment: SPR
[2] = target: YAP-binding domain of human TEAD4, TEAD4 217-434 (human) (UniProt Q15561); experiment: SPR
YAP-binding domain of human TEAD4, TEAD4 217-434 (human), sequence (Q15561 217-434): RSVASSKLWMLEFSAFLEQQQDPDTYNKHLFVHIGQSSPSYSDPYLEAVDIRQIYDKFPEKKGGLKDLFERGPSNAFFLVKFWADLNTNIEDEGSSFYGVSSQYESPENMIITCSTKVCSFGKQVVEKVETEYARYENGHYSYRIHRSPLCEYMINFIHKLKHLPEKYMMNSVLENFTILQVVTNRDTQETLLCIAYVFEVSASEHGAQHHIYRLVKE

| Substance | Kd [1] [nM] | Kd [2] [nM] |
| --- | --- | --- |
| synthetic peptide of the TEAD-binding domain of YAP, Anabas testudineus_2 (residues 21-60) | 60 | – |
| synthetic peptide of the TEAD-binding domain of YAP, Anabas testudineus_1 (residues 21-59) | 99 | 71 |
